The results in this text go back to paper PMC7118173 (Nature Communications, 2020).

The subject of one data set is FtsZ and SUVs. Briefly: Cryo-EM of ternary complex FtsZ-GTP + SepF + SUVs. In kind it is biochemical, C. glutamicum. The note with it: 100 μM SUVs, 10 μM SepF, 10 μM FtsZ, 3 mM GTP. The procedure:
5 µl of sample were deposited onto glow-discharged lacey carbon copper grids (Ted Pella) and plunge-frozen in liquid ethane using a Leica EM-CPC. Cryo-EM data acquisition was performed on a JEOL 2200FS (Jeol, Japan) 200 kV cryo-electron microscope equipped with an Omega in-column energy filter. High magnification (30,000×, corresponding pixel size 0.32 nm) zero-loss (slit: 20 eV) images were collected at nominal defocus between 1 and 4 µm depending on the experiment on a Gatan USC1000 slow scan CCD camera.

In data set [1] the test system is SepF. Nature of the data set: SepF polymerization (turbidity) assay in the presence of SUVs. The note with it: SepF (or mutant) plus SUVs 50 µM each, pH 6.9, 25 °C. In kind it is biochemical, C. glutamicum. The method, then: When used, FtsZCTD was added at a final concentration of 100 μM.
Reverse phase evaporation was used to prepare small unilamellar vesicles (SUVs). A 10 mM lipid solution made of an 8:2 mixture of 1-palmitoyl-2-oleoyl phosphatidylcholine (POPC) and 1-palmitoyl-2-oleoylglycero-3-phosphoglycerol (POPG) (Avanti Polar Lipids) was prepared as described. Chloroform was removed by evaporation under vacuum conditions and the dried phospholipid film was resuspended in a mixture of diethyl ether and buffer (25 mM Hepes pH 7.4, 10 mM MgCl2 and 150 mM KCl). Diethyl ether was eliminated by reverse phase evaporation and by slowly decreasing the pressure to the vacuum. SUVs were obtained by sonication during 30 min at 4 °C. The diameter and charge of SUV were determined by measuring dynamic light scattering (DLS) and electrophoretic mobility profiles on a Zetasizer Nano instrument (Malvern Instruments).

Data set [2] relates to FtsZ. The conditions noted are these: 400 nm, 25 °C, 600 s, 100 mM KCl, 10 mM MgCl2, 25 mM Pipes pH 6.9, 15 µM proteins, GTP.
Method: The mixture was placed into a quartz cuvette with a light path of 10 mm or a 96-well plate and 0.5−2 mM GTP or GMPCPP were added to the reaction mixture. Data acquisition started immediately using an UV–Visible Spectrophotometer (Thermo scientific Evolution 220) during 600 s at 25 °C using 400 nm for excitation and emission and spectra with slits widths of 1 nm or a Varioskan™ LUX plate reader (Thermo Fisher Scientific) with an excitation of 400 nm. Experiments were done in triplicates and measurements were taken every 15 s during 600 s and keeping a constant temperature of 25 °C.
For a further data set, the system named is WT C. glutamicum. Nature of the data set: Number of ring-like structures per cell, overexpression in WT. It counts as cell-based, Corynebacterium glutamicum. The note with it: for ring-like structures per cell: overexpression in WT background.
For data set [3], the system named is FtsZ.
Data set [4] relates to FtsZ. This is another data set of the same source.
Method: After, 100 µl of the mixture were place in a 96-well-plate that contained GTP at 2 mM final concentration. Reactions were incubated at room temperature for 10 min and 100 µl of the developing reagent was added. The mixture was incubated at room temperature for 25 min to allow development of the green color and absorbance was measured at 620 nm using a Varioskan™ LUX (Thermo Fisher Scientific). Reactions were performed in triplicate for each condition.
Data set [5] deals with Pino-sepF strain. Nature of the data set: Growth curves / complementation of the Pino-sepF strain. The note with it: SepF depletion with 1% myo-inositol, exogenous construct induced.
Method: Positive colonies were grown in BHI media supplemented with 25 µg/ml kanamycin overnight at 30 °C and 120 rpm shaking.
All strains were plated in CGXII media plates with 4% (w/v) sucrose as a carbon source for 2 days at 30 °C and then single colonies were inoculated in 10 ml of CGXII media 4% (w/v) sucrose overnight at 30 °C and 120 rpm shaking. The next day, 20 ml of CGXII media supplemented with the appropriate repressor or inducer were inoculated with the overnight cultures to a starting OD600 of 1. OD600 measurements were taken every 1.5 h. Each growth curve represents the average of three different growth curves originally from three different single colonies. […] When required, CGXII media 4% (w/v) sucrose was supplemented with either 1% (w/v) myo-inositol, 50 ng/ml tetracycline or 1% (w/v) gluconate and 25 μg/ml kanamycin.
For data set [6], the system named is C. glutamicum ATCC13032 whole-cell extracts. Nature of the data set: SepF and FtsZ quantification by Western blot. In kind it is cell-based, Corynebacterium glutamicum. The note with it: 60 ugr loaded. Background: Immunoblotting shows a protein as a band on a membrane.
The nature of data set [7]: Negative stain EM of SUVs with SepF. It counts as biochemical. The conditions noted are these: end-point of SepF + SUVs reaction, 50 μM.
The next data set is described as follows: Dynamic light scattering. It counts as physicochemical. The conditions noted are these: SUVs + SepF 50 µM each, pH 6.9, 25 °C. The method, then:
Polydispersity of the samples was measured using Dyna-pro Plate Reader (Wyatt technology) equipped with an 830 nm laser and a temperature control module. The Dynamics software (version 7.9) was used to schedule data acquisition and data analysis. For each well, 20 measurements of 10 s were averaged and this operation was repeated 20 times for each condition at 25 °C. For samples containing FtsZCTD, the peptide was used at a final concentration of 100 µM. All the experiments were carried out as minimum three biological and technical replicates.

Data set [8] has as its system SepF. Nature of the data set: Western blots of whole-cell extracts (SepF depletion / expression). In kind it is cell-based, C. glutamicum. The note with it: SepF under Ptac, WT. The method, then: 24 homogenizer. Crude extracts (120 μg) were analyzed by SDS-PAGE, electro-transferred onto a 0.2 μm Nitrocellulose membrane and blocked with 5% (w/v) skimmed milk. Membranes were incubated with an anti-SepF antibody (produced by Covalab, Supplementary Fig. 25a), an anti-FtsZ antibody (produced by Proteogenix, Supplementary Fig. 25b) or an anti-mNeonGreen antibody (purchased from Chromotek) for 1 h at room temperature.

Data set [9] is described as follows: Negative stain EM of SepF rings. In kind it is physicochemical. The procedure: For all samples, 400 mesh carbon coated grids (Electron Microscopy Sciences; CF 400-Cu) were glow-discharged on an ELMO system for 30 sec at 2 mA. 5 µl samples were applied onto the grids and incubated for 30 s, the sample was blotted, washed in 3 drops of water and then stained with 2% (weight/vol) uranyl acetate. Images were recorded on a Gatan UltraScan4000 charged coupled device (CCD) camera (Gatan) on a Tecnai T12 BioTWINLaB6 electron microscope operating at a voltage of 120 kV.

Data set [10] has as its system Pino-sepF strain. Briefly: Scarlet fluorescence localization in the Pino-sepF strain. It counts as cell-based, Corynebacterium glutamicum. The conditions noted are these: 1% myo-inositol plus 1% gluconate. The procedure: For imaging, cultures of C. glutamicum were grown in BHI or minimal medium CGXII during the day, and washed and inoculated into CGXII media for overnight growth. The following day cultures were diluted to OD600 = 1 and grown to the required OD (early exponential phase) for imaging. For HADA labeling, cultures were incubated with 0.5 mM HADA for 20 min at 30 °C in the dark. Two percent agarose pads were prepared with the corresponding growth medium and cells were visualized using a Zeiss Axio Observer Z1 microscope fitted with an Orca Flash 4 V2 sCMOS camera (Hamamatsu), and a Pln-Apo 63×/1.4 oil Ph3 objective. Images were collected using Zen Blue 2.6 (Zeiss) and analyzed using the software Fiji[70] and the plugin MicrobeJ[71] to generate violin plots and fluorescent intensity heatmaps. Statistical analyses of cell lengths are summarized in Supplementary Tables 5 and 6. The experiments were performed as biological triplicates. Some autofluorescence is observed for wild-type C. glutamicum as shown in Supplementary Fig. 24.

The subject of data set [11] is Pino-sepF strain. Briefly: Cell length distribution (violin plots), Pino-sepF strains. In kind it is cell-based, Corynebacterium glutamicum. The conditions noted are these: 1% myo-inositol + 1% gluconate, t = 6, replicate 1, listed as PgntK_SepF(K125R/F131A)_Scarlet.
Method: For imaging, cultures of C. glutamicum were grown in BHI or minimal medium CGXII during the day, and washed and inoculated into CGXII media for overnight growth. The following day cultures were diluted to OD600 = 1 and grown to the required OD (early exponential phase) for imaging. For HADA labeling, cultures were incubated with 0.5 mM HADA for 20 min at 30 °C in the dark. Two percent agarose pads were prepared with the corresponding growth medium and cells were visualized using a Zeiss Axio Observer Z1 microscope fitted with an Orca Flash 4 V2 sCMOS camera (Hamamatsu), and a Pln-Apo 63×/1.4 oil Ph3 objective. Images were collected using Zen Blue 2.6 (Zeiss) and analyzed using the software Fiji[70] and the plugin MicrobeJ[71] to generate violin plots and fluorescent intensity heatmaps. […] The experiments were performed as biological triplicates.
Data set [12] has as its system FtsZ. The note with it: immunoprecipitation coupled to crosslinking; unpaired t-test p 0.004.
Method: Cells were harvested, washed, and normalized by resuspending cell pellets in PBS-T (1X PBS, 0.1% v/v Tween-80) to give a final OD600 of 3. The cell suspensions were cross-linked with 0.25% v/v of formaldehyde for 20 min at 30 °C with gentle agitation. The crosslinking reaction was stopped by adding 1.25 M glycine and incubated for 5 min at room temperature. Cells were resuspended in 50 mM Bis-Tris pH 7.4, 75 mM aminocaproic acid, 1 mM MgSO4, 1× Benzonase, 1× Complete Protease inhibitors cocktail (ROCHE) and disrupted at 4 °C with 0.1 mm glass beads and using a [sequence] 24 homogenizer. After lysis, 0.1% n-Dodecyl-β-D-Maltopyranoside was added and the total extract was incubated for 1 h at 4 °C. Cell lysates were centrifuged at 4 °C for 10 min at 14,000 rpm and the soluble fraction was collected and protein levels quantified.
Detergent-solubilized protein extracts were incubated with 50 μl of magnetic beads cross-linked with 10 μg of purified anti-Scarlet antibody (produced by Covalab). […] Tryptic peptides from three replicates of each condition were analyzed using a nano-HPLC (Ultimate 3000, Thermo) coupled to a hybrid quadrupole-orbitrap mass spectrometer (Q-Exactive Plus, Thermo). […]
Patternlab for proteomics was used for label-free quantitation analyses using extracted ion chromatogram (XIC).
Data set [13] deals with the molecule itself. Briefly: SEC + AUC; sedimentation velocity, 42,000 rpm, 20 °C, 1-2 mg/ml, 50 mM Hepes pH 7.4, 150 mM KCl, 10 mM MgCl2; size exclusion chromatography. On the technique in general: In gel filtration, larger molecules generally elute earlier.

B1: SepF: C. glutamicum SepF (cg2363), full-length (protein)
chain: MSMLKKTKEFFGLAPYEAEHEDAYYADEPRYEGTAAYAPEYRERDYGYAPEAPAPVAPSPAPRSYQSTIVPVELHSFEDAQVIGGAFRDGDAVVFDMSLLSREEARRIVDFAAGLCFALRGKMQKIDSVTFAVVPELSNISTSELERAARIR
modifications: left off: His6, N-terminal, cleaved | SUMO, N-terminal, cleaved
For B1, the “lipid binding in ternary complex” value with FtsZ and SUVs is “dimeric form of SepF retains lipid-binding capability”. For the same molecule, the “polymerization with SUVs (turbidity)” value in the data set on SepF [1] is reported as “SepF concentration-dependent polymerization”. Moreover, the “effect on FtsZ polymerization / bundling” value in the data set with FtsZ [2] was “strong FtsZ bundling effect”. Also, the “ring-like structures per cell” value with WT C. glutamicum was “multiple-rings phenotype is not observed”. For the same molecule, the “FtsZ filament morphology by EM” value with FtsZ [3] is reported as “thick bundles of FtsZ protofilaments, as well as highly curved filaments”. Moreover, the “effect on GTPase activity of FtsZ” value with FtsZ [4] (15 µM SepF and FtsZ, F test p=0.5872) was “did not significantly affect the GTPase activity of FtsZ”. Further, the “GTPase activity (phosphate release), mean” value with FtsZ [4] (15 µM each, 2 mM GTP, pH 6.9, room temperature, 10 min, mean, n = 11) came to 0.09 nmol. Besides, the “complementation of SepF depletion (growth)” value in the data set with Pino-sepF strain [5] is given as “rescued”. The “band volume in whole-cell extract” value in data set [6] (ON S (over-night, sucrose)) was 455544; in data set [6] (ON S+G (over-night, sucrose + gluconate)), 420204; in [6] (T6 S (6 h, sucrose)), 522995; in data set [6] (T6 S+G (6 h, sucrose + gluconate)), 618345. The “vesicle morphology by EM” value in data set [7] is recorded as “lipid vesicles were tubulated”. Further, in “Dynamic light scattering”, the “particle size by DLS” value is “formation of large structures”. Besides, the “protein overexpression upon induction” value in the data set on SepF [8] is ~ 30 fold. Further, the “ring-like structures by EM” value in data set [9] is given as “unsuccessful”.

B2: SepFK125E/F131A-Scarlet: Scarlet-tagged SepF impaired for FtsZ binding (protein)
chain: MSMLKKTKEFFGLAPYEAEHEDAYYADEPRYEGTAAYAPEYRERDYGYAPEAPAPVAPSPAPRSYQSTIVPVELHSFEDAQVIGGAFRDGDAVVFDMSLLSREEARRIVDFAAGLCFALRGKMQEIDSVTAAVVPELSNISTSELERAARIR
modifications: left off: mScarlet-I, C-terminal, kept
B2: the “localization of Scarlet construct” value in the data set on Pino-sepF strain [10] was “diffuse in the cytoplasm”. In the data set on Pino-sepF strain [11], the mean cell length came to 9.96. In addition, the “frequency of cells with n septa (ring-like structures)” value (from here on “frequency of cells with n septa”) in the data set on WT C. glutamicum (n septa 0, replicate 1) is 0.122; in the data set on WT C. glutamicum (n septa 0, replicate 2), 0.074; in the data set on WT C. glutamicum (n septa 0, replicate 3), 0.099; in the data set with WT C. glutamicum (n septa 1, replicate 1), 0.227; in the data set with WT C. glutamicum (n septa 1, replicate 2) it was 0.25; with WT C. glutamicum (n septa 1, replicate 3), 0.189. For the same molecule, the “frequency of cells with n septa” value in the data set with WT C. glutamicum (n septa 2, replicate 1) is on record as 0.246; in the data set with WT C. glutamicum (n septa 2, replicate 2), 0.193; in the data set with WT C. glutamicum (n septa 2, replicate 3) it was 0.186; with WT C. glutamicum (n septa 3, replicate 1), 0.241; in the data set on WT C. glutamicum (n septa 3, replicate 2) it was 0.22; in the data set with WT C. glutamicum (n septa 3, replicate 3), 0.232. The “frequency of cells with n septa” value was 0.102 with WT C. glutamicum (n septa 4, replicate 1); 0.152 in the data set with WT C. glutamicum (n septa 4, replicate 2); 0.133 with WT C. glutamicum (n septa 4, replicate 3); 0.042 in the data set on WT C. glutamicum (n septa 5, replicate 1); 0.077 in the data set with WT C. glutamicum (n septa 5, replicate 2); 0.11 in the data set on WT C. glutamicum (n septa 5, replicate 3). Besides, the “frequency of cells with n septa” value in the data set with WT C. glutamicum (n septa 6, replicate 1) was 0.014; with WT C. glutamicum (n septa 6, replicate 2), 0.03; in the data set on WT C. glutamicum (n septa 6, replicate 3), 0.033; in the data set with WT C. glutamicum (n septa 7, replicate 1) it was 0.006; with WT C. glutamicum (n septa 7, replicate 2), 0.003; with WT C. glutamicum (n septa 7, replicate 3), 0.015. Also, the “ring-like structures per cell” value in the data set with WT C. glutamicum is recorded as “net increase in the number of ring-like structures per cell”. For the same molecule, the “complementation of SepF depletion (growth)” value in the data set on Pino-sepF strain [5] is listed as “completely failed to complement”. Also, the “fold reduction of FtsZ binding (normalized FtsZ) versus SepF-Scarlet” value in the data set with FtsZ [12] is reported as 7.2 fold.

B3: C. glutamicum SepF devoid of helix α3 (construct of the SEC and AUC experiments) (domain or fragment)
chain: MSYQSTIVPVELHSFEDAQVIGGAFRDGDAVVFDMSLLSREEARRIVDFAAGLCFALRGKMQKIDSVTFAVVPEL
On to B3, for which, in data set [13], the “stoichiometry N” value was 2.

What is called stoichiometry N is a count of units in the complex or per binding partner.
